The nature of the data set: yeast display, Sf9 membrane polyspecificity reagent, FACS + sequencing; frameworks hold sequencing errors. Put shortly:
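After 36–48 hours of galactose induction, yeast (Saccharomyces cerevisiae BJ5465) displaying a synthetic nanobody library were stained at 4 °C for 1 hour with 10% biotinylated, detergent-solubilized Sf9 membrane reagent. Streptavidin microbeads enriched the stained cells before FACS sorting into low and high (top ~1%) gates on anti-HA and streptavidin fluorescence. Each clone's polyreactivity label reflects its gate of origin.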
As for “QVQLVESGGGLVQAGGSLRLSCAASGLTFERYAMGWYRQAPGKERELVADITWSGGRTYYADSVKGRFTISRDNAKNTVYLQMNSLKPEDTAVYYCAADVYPGYVGSQEYDYWGQGTQVTVSS”, the “polyreactivity (PSR sort gate)” value is recorded as “low polyreactivity”.
The value for “QVQLVESGGGLVQAGGSLRLSCAASGLTFEYNAMGWYRQAPGKERELVAAITSGVNTYYADSVKGRFTISRDNAKNTVYLQMNSLKPEDTAVYYCAKYRWNWRYVSRGDSWGQGTQVTVSS” was “high polyreactivity”.
Next, “QVQLVESGGGLVQAGGSLRLSCAASGLTFEYYTMGWYIQAPGKERELVAAITSSGGSTYYADSVKGRFTISRDNAKNTVYLQMNSLKPVDTAVYYCAAYQIYQYDGTYDYWGQGTQVTVSS”: “low polyreactivity”; “QVQLVESGGGLVQAGGSLRLSCAASGLTFEYYTMGWYRQAPGKERELVAAITSSGGSTYYADSVKGRFTISRDNAKNTVYLQMNSLKPEDTAVYYCAADYYTWYGILYDYWGQGTQVTVSS”: “low polyreactivity”; “QVQLVESGGGLVQAGGSLRLSCAASGLTFFGNAMGWYRQAPGKERELVATISSGGGTSYADSVKGRFTISRDNAKNTVYLQMNSLKPEDTAVYFCAAEIVEEFDYWGQGTQVTVSS”: “low polyreactivity”.
The value for “QVQLVESGGGLVQAGGSLRLSCAASGLTFFKYTMGWYIQAPGKERELVAAINGGGSTNYADSVKGRFTISRDNAKNTVYLQMNSLKPEDTAVYYCAAGLPYGYDYWGQGTQVTVSS” was “low polyreactivity”; that for “QVQLVESGGGLVQAGGSLRLSCAASGLTFGDNAMGWYRQAPGKERELVAAITTSGPSTYYADSVKGRFTISRDNAKNTVYLQMNSLKPEDTAVYYCAADGLFYWVQYGYWGQGTQVTVSS” was “low polyreactivity”; that for “QVQLVESGGGLVQAGGSLRLSCAASGLTFGDYAMGWYRQAPGKEWELVAVITSSGSTYYADSVKGRFTISRDNAKNTVYLQMNSLKPEDTAVYYCATSAPAYRWRERYYYWGQGTQVTVSS” was “high polyreactivity”.
Regarding “QVQLVESGGGLVQAGGSLRLSCAASGLTFGDYTMGWYRQAPGKERELVAAITWSGASTYYADSVKGRFTISRDNAKNTVYLQMNSLKPEDTAVYYCADERTPSYRAYDYWGQGTKVTVSS”, the “polyreactivity (PSR sort gate)” value is on record as “low polyreactivity”.
Next, “QVQLVESGGGLVQAGGSLRLSCAASGLTFGGNAMGWYRQAPGKERELVAAISSGGSTNYADSVKGRFTISRDNAKNTVYLQMNSLKPEDTAVYYCAARDRPGNYFTVYGYWGQGTQVTVSS”: “low polyreactivity”; “QVQLVESGGGLVQAGGSLRLSCAASGLTFGGNAMGWYRQAPGKERELVAAISWSDDTTDYADSVKGRFTISRDNAKNTVYLQMNSLKPEDTAVYYCADRLPFEHVDYWGQGTQVTVSS”: “low polyreactivity”.
Consider “QVQLVESGGGLVQAGGSLRLSCAASGLTFGGNAMGWYRQAPGKERELVAAISWSDDTTDYADSVKGRFTISRDNAKNTVYVQMNSLKPEDTAVYYCAARLPFEHVDYWGQGTQVTVTS”, for which the “polyreactivity (PSR sort gate)” value is “low polyreactivity”.
The value for “QVQLVESGGGLVQAGGSLRLSCAASGLTFGRNAMGWYRQAPGKERELVAAISRSGGRTSYADSVKGRFTISRDYAKNTVYLQMNSLKPEDTSVYFCAALSDVYTHDYWGQGTQVTVSS” was “high polyreactivity”; that for “QVQLVESGGGLVQAGGSLRLSCAASGLTFGTYAMGWYRQAPGKERELVAAIRSGGSTNYADSVKGRFTISRDTAKNTVYLQMNILKPEDNAVYYCAKRYYWDRYYYWGQGTPVTVSS” was “high polyreactivity”.
As to “QVQLVESGGGLVQAGGSLRLSCAASGLTFGWYAMGWYRQAPGKERELVASITRRSGSTYYADSVKGRFTISRDNAKNTVYLQMNSLKPEDTAVYYCNAVPGYVYYYQYWGQGTQVTVSS”, the “polyreactivity (PSR sort gate)” value is on record as “high polyreactivity”.
Next, “QVQLVESGGGLVQAGGSLRLSCAASGLTFGYYAMGWYRQAPGKERELVAAISVSGSTYYADSVKGRFTISRDNAKNTVYLQMNSLKPEDTAVYYCNRAIGYRKELDYWGQGTQVTVSS”: “high polyreactivity”; “QVQLVESGGGLVQAGGSLRLSCAASGLTFGYYAMGWYRQAPGKERELVAVISGGGGTHYADSVKGRFTISRDNAKNTVYLQMNSLKPEDTAVYYCAARYRAQQIARYYYWGQGTQVTVSS”: “high polyreactivity”.
Consider “QVQLVESGGGLVQAGGSLRLSCAASGLTFGYYTMGWYRQAPGKERELVAAITYSGGSTYYADSVKGRFTISRDNAKNSVYLQMYSLKPEDTAVYYCAADGPVYTTYEYWGQGTQVTVSS”, for which the “polyreactivity (PSR sort gate)” value is “low polyreactivity”.
The value for “QVQLVESGGGLVQAGGSLRLSCAASGLTFGYYTMGWYRQAPGKERELVAAITYSGGSTYYADSVKGRFTISRDNAKNTVYLQMNSLKPEDTAVYYCAAEGPVYTTYEYWGQGTQVTVSS” was “low polyreactivity”.
The value for “QVQLVESGGGLVQAGGSLRLSCAASGLTFHRYAMGWYRPAPGKERELVAGISWSGASTYYADSVKGRFTISRDNAKNTVYLQMNSLKPEDTAVYYCAARRYYKYDWGQGTQVTVSS” was “high polyreactivity”; that for “QVQLVESGGGLVQAGGSLRLSCAASGLTFIAYAMGWYRQAPGKERELVAAITWIGDSTYYADSVKGRFTISRDNAKNTVYLQMNSLKPEDTAVYYCATDWYGQYNGIYDYWGQGTQVTVSS” was “low polyreactivity”; that for “QVQLVESGGGLVQAGGSLRLSCAASGLTFIFNTMGWYRQAAGKERVLVAAISTSGGSTYYADSVKGRFTISRDNANNTVYLQMNSVKQEDTAFYYCAKEFKYWGYPYEYWGQGTLVTVSS” was “low polyreactivity”.
Next, “QVQLVESGGGLVQAGGSLRLSCAASGLTFIFYAMGWYRPAPGKERELVAAISVSGGSTYYADSVKGRFTISRDNAKNTVYLQMNSLKPEDTAVYYCAADREHFATYGPHMDYWGQGTQVTVSS”: “low polyreactivity”; “QVQLVESGGGLVQAGGSLRLSCAASGLTFIHYSMGWYRQAPGKEREFVAAISTNSGSTYYADSVKGRFTISRDNAKNTVYLQMNSLKPEDTAVYYCAARGLRWRIDGEYWGQGTQVTVSS”: “high polyreactivity”; “QVQLVESGGGLVQAGGSLRLSCAASGLTFIRYAMGWYRQAPGKQRELVAAISTSGGRTYYADSVKGRFTISRDNAKNNVYLQMNILTPEDTAVYYCNAYWRQGYYPEYYYWGQGTQVTVSS”: “high polyreactivity”.
In the case of “QVQLVESGGGLVQAGGSLRLSCAASGLTFIYYAMGWYRQAPGKERELVAAISTSGASTYYADSVKGRFTISRDNAKNTVYLQMNSLKPEDTAVYYCNAEYFGEYRDYGYWGQGTQVTVSS”, the “polyreactivity (PSR sort gate)” value was “low polyreactivity”.
The value for “QVQLVESGGGLVQAGGSLRLSCAASGLTFIYYAMGWYRQAPGKERELVARINNGDNTYYADSVKGRFTISRDNAKNTVYLQMNRLNPEDTAVYYCAAARYSRLSRTRPGKYGYWGQGTQVTVSS” was “low polyreactivity”.
Turning to “QVQLVESGGGLVQAGGSLRLSCAASGLTFIYYAMGWYRQARGKERELVAAISRSGGSTYYADSVKGRFTISRDNAKNTVYLQMNSLKPEDTAVYYCAADGTKYSGRVTGDYWGQGTQVTVSS”, the “polyreactivity (PSR sort gate)” value is “high polyreactivity”.
Next, “QVQLVESGGGLVQAGGSLRLSCAASGLTFKDNVMGWYRQAPGKERELVAAISSSGGSTYYADSVKGRFTLSRDNAKNTVYLQMNSLKPEDTAVYYCAAPTFSRYYYWGQGTQVTVSS”: “high polyreactivity”; “QVQLVESGGGLVQAGGSLRLSCAASGLTFKFNAMGWYRQAPGKERELVAAITYSGGSTYYADSVKGRFTISRDNAKNTVYLQMNSLKPDDTAVYYCAAEGWWGYYRYNYWGQGTQVTVSS”: “high polyreactivity”.
Next, “QVQLVESGGGLVQAGGSLRLSCAASGLTFKQYALGWYRQAPGKERELVAAITVSGGDTYYADSVKGRFTISRDNAKNSVYLQMNSLKPVDTAVYYCAADHFFWGYDYWGQGTQVTVSS”: “high polyreactivity”.
The value for “QVQLVESGGGLVQAGGSLRLSCAASGLTFKVYAMGWYRQAPGKERELVAAISWSGGSTYYADSVKGRFTISRDNAKNTVYLQMNSLKPEDTAVYYCAARGYAWYRGNYDYWGQGTQVTVSS” was “high polyreactivity”.
As for “QVQLVESGGGLVQAGGSLRLSCAASGLTFKVYAMGWYRQAPGKERELVAAISWSGGSTYYADSVKGRFTISRDNAKNTVYLQMNSLKPEDTAVYYCAVEPSYYVVFFPYEYWGQGTQVTVSS”, the “polyreactivity (PSR sort gate)” value is recorded as “low polyreactivity”.
The value for “QVQLVESGGGLVQAGGSLRLSCAASGLTFKYYAMGWSRQAPGKESELVAAITSTGGRTYYADSVKGRFTISRDNAKNTVYLQMNSLKPEDTAVYYCAAYYVGSSKYDSWGQGTQVTVSS” was “low polyreactivity”.
Regarding “QVQLVESGGGLVQAGGSLRLSCAASGLTFLYYAMGWYRQAPGKERELVAAISSRGGSTYYADSVKGRFKISRDNAKNTVYLQMNSLKPEDTAVYYCNAVRGDEYWGQGTQVTVSS”, the “polyreactivity (PSR sort gate)” value is on record as “high polyreactivity”.
Next, “QVQLVESGGGLVQAGGSLRLSCAASGLTFNKNAMGWYRQAPGKEREFVAAISRRGGSTRYADSVKGRFTISRDNAKNTVYLQMHSLKPEDTAVYYCAKTAVDYYYSYDYWGQGTQVTVSS”: “high polyreactivity”; “QVQLVESGGGLVQAGGSLRLSCAASGLTFNSYDMGWYRQAPGKERELVAAISSGGVLPNYADSVKGRFTISRDNAKNTVYLQMNSLKPEDTAVYYCAAGYEYDVSDFDYWGQGTQVTVSS”: “low polyreactivity”; “QVQLVESGGGLVQAGGSLRLSCAASGLTFNVNPIVWYRQAPGKEREMVARITTSGGSTSYADSVKGRFTISRDNAKNTVYLQMNSLKPEDSAVYYCAADRARYYSEYDYWGQGTQVTVSS”: “low polyreactivity”.
Next, “QVQLVESGGGLVQAGGSLRLSCAASGLTFNWYAMGWYRQAPGKERELVAAINRRGVITYYADSVKGRFTISRDNAKNTVYLQMNSLKPEDTAVYYCNAAYGYVSRVYYLIEHDYWGQGTHVTVSS”: “high polyreactivity”; “QVQLVESGGGLVQAGGSLRLSCAASGLTFNYYDMGWYRQAPGKERELVAAISRSGTNTSYADSVKGRFTISRDNAKNTVYLQMNSLKPEDTAVYYCNAAGVYLAAGPYTANFNYNYWGQGTQVTVSS”: “low polyreactivity”.
The value for “QVQLVESGGGLVQAGGSLRLSCAASGLTFPFYTMGRYRRAPGKERELVAAISRRGGSTYYADSVKGRFTISRDNAKNTVYLQMNSLKPEDTAVYYCAADKYSWYDYWGQGTQVTVSS” was “low polyreactivity”.

(Values after the nanobody polyreactivity screen of Harvey et al. (2022).)
